Measurements: publication PMC4270767 (PLoS ONE, 2014)

B1: ACT-domains: ACT domains of MtSerB2 alone (residues 1–165) (protein, UniProt O53289 1-165, looked up, fragment)
chain: MPAKVSVLITVTGMDQPGVTSALFEVLAQHGVELLNVEQVVIRGRLTLGVLVSCPLDVADGTALRDDVAAAIHGVGLDVAIERSDDLPIIRQPSTHTIFVLGRPITAGAFSAVARGVAALGVNIDFIRGISDYPVTGLELRVSVPPGCVGPLQIALTKVAAEEHV
modifications: ACT domains
B2: PSPD: phosphoserine phosphatase domain of MtSerB2 alone (residues 165–409) (protein, UniProt O53289 165-409, looked up, fragment)
chain: VDVAVEDYGLAWRTKRLIVFDVDSTLVQGEVIEMLAARAGAQGQVAAITEAAMRGELDFAESLQRRVATLAGLPATVIDDVAEQLELMPGARTTIRTLRRLGFRCGVVSGGFRRIIEPLARELMLDFVASNELEIVDGILTGRVVGPIVDRPGKAKALRDFASQYGVPMEQTVAVGDGANDIDMLGAAGLGIAFNAKPALREVADASLSHPYLDTVLFLLGVTRGEIEAADAGDCGVRRVEIPAD
modifications: phosphoserine phosphatase domain
B3: Wild-type: recombinant hexa-his-tagged M. tuberculosis phosphoserine phosphatase SerB2 (Rv3042c) (protein, UniProt O53289 1-409, looked up)
chain: MPAKVSVLITVTGMDQPGVTSALFEVLAQHGVELLNVEQVVIRGRLTLGVLVSCPLDVADGTALRDDVAAAIHGVGLDVAIERSDDLPIIRQPSTHTIFVLGRPITAGAFSAVARGVAALGVNIDFIRGISDYPVTGLELRVSVPPGCVGPLQIALTKVAAEEHVDVAVEDYGLAWRTKRLIVFDVDSTLVQGEVIEMLAARAGAQGQVAAITEAAMRGELDFAESLQRRVATLAGLPATVIDDVAEQLELMPGARTTIRTLRRLGFRCGVVSGGFRRIIEPLARELMLDFVASNELEIVDGILTGRVVGPIVDRPGKAKALRDFASQYGVPMEQTVAVGDGANDIDMLGAAGLGIAFNAKPALREVADASLSHPYLDTVLFLLGVTRGEIEAADAGDCGVRRVEIPAD
modifications: full-length His6 tag

System: THP-1 cells
Type: cell-based
Details: 100 µg of purified protein, 30 minutes and 2 hours

Row | Molecule | rearrangement of microtubules
1 | B1 | almost no re-arrangement of the microtubules
2 | B2 | significant
3 | B3 | striking rearrangement of microtubules
